Test results: patent US9296810 (Novartis, dated 2016)

How the values were obtained:
[1] = molecular target: T1, Human Serum Albumin (HSA) (human, UniProt P02768 25-609); experiment: yeast display selection
[2] = molecular target: T1, Human Serum Albumin (HSA); experiment: sandwich ELISA: VEGFR2-Fc immobilized, cleared lysate, then HSA, anti-HSA-HRP detection
Experimental: The binding characteristic of the multispecific and bispecific binders from Examples 6 and 7 were assessed as follows. […] Aliquots of cleared lysate of wild-type Fn10 (lane1), clone 87 (multispecific) (lane2), clone 89 (bispecific) (lane3) and PBS were added to the wells and incubated for 1 hour at room-temperature. These were run at different concentrations 1, 2 and 3. After washing 5 times with PBS/0.05% Tween, the wells were incubated with 1 µg/ml HSA in PBS. Detection was performed with HRP conjugated chicken anti-human HSA antibody (Abcam). The ELISA was developed with a […] substrate and the OD-values measured at 450 nm.

[3] = molecular target: T2, hen egg white lysozyme (hen, UniProt P00698 19-147, biotinylated (HEL-b); sites not stated); experiment: yeast display selection
T2 construct: also called lyzozyme; HEL-b (biotinylated)
T2 sequence (P00698 19-147 limits assumed): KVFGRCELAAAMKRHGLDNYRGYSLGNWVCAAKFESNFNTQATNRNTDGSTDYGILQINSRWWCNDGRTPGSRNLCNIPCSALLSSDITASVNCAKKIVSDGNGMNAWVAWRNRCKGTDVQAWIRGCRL

T1 sequence (P02768 25-609 limits assumed): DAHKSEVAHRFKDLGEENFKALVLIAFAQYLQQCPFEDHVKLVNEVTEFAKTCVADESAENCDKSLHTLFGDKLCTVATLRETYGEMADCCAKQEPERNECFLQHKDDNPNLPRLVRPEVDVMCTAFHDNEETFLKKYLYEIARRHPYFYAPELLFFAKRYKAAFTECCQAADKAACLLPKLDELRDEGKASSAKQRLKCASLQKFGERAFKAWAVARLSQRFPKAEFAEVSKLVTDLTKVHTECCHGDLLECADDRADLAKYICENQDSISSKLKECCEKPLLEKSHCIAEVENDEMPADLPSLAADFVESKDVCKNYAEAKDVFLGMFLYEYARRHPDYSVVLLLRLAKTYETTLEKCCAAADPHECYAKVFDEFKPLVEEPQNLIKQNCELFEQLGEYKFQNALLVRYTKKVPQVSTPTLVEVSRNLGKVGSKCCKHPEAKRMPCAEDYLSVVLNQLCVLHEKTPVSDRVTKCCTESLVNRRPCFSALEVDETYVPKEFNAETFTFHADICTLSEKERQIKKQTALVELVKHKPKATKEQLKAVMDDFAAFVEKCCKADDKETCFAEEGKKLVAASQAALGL

Row | Binder | binding result [1] | other results
1 | SEQ ID NO 33 (designed binder) VSDVPRDLEVVAATPTSLLISWDAPAVTVRYYRITYGVMHDKHPKKEFTVPGSKSTATISGLKRGRDYTITVYAVTGRGDSPASSKPISINYKSEA | binds | 
2 | SEQ ID NO 23 (designed binder) VSDVPRDLEVVAATPTSLLISWDAPAVTVRYYRITYGVMGDTKKVKEFTVPGSKSTATIERIKLGRDYTITVYAVTGRGDSPASSKPISINYRKEH | binds | 
3 | SEQ ID NO 10 (designed binder) VSDVPRDLEVVAATPTSLLISWDAPAVTVRYYRITYGKTGHKSSDHEFTVPGSKSTATIGGMKGGVDYTITVYAVTGRGDSPASSKPISINYRFER | binds | 
4 | SEQ ID NO 24 (designed binder) VSDVPRDLEVVAATPTSLLISWDAPAVTVRYYRITYGEASKNHRQHEFTVPGSKSTATISRIKRGTDYTITVYAVTGRGDSPASSKPISINYSPES | binds | 
5 | SEQ ID NO 40 (designed binder) VSDVPRDLEVVAATPTSLLISWDAPAVTVRYYRITYGRPGHNSKVHEFTVPGSKSTATIDGAKKGHDYTITVYAVTGRGDSPASSKPISINYIMEH | binds | 
6 | SEQ ID NO 26 (designed binder) VSDVPRDLEVVAATPTSLLISWDAPAVTVRYYRITYGKTARKYHMQEFTVPGSKSTATISGIKRGTDYTITVYAVTGRGDSPASSKPISINYNSEH | binds | 
7 | SEQ ID NO 11 (designed binder) VSDVPRDLEVVAATPTSLLISWDAPAVTVRYYRITYGKKDRASHLKEFTVPGSKSTATIGHIKGGYDYTITVYAVTGRGDSPASSKPISINYSGEP | binds | 
8 | SEQ ID NO 39 (designed binder) VSDVPRDLEVVAATPTSLLISWDAPAVTVRYYRITYGKKHKHTTVREFTVPGSKSTATIAGKSLGGDYTITVYAVTGRGDSPASSKPISINYTSET | binds | 
9 | SEQ ID NO 31 (designed binder) VSDVPRDLEVVAATPTSLLISWDAPAVTVRYYRITYGEVHGHHTAHEFTVPGSKSTATIVRLKRGKDYTITVYAVTGRGDSPASSKPISINYCPER | binds | 
10 | SEQ ID NO 17 (designed binder) VSDVPRDLEVVAATPTSLLISWDAPAVTVRYYRITYGQRVGKTKVHEFTVPGSKSTATIRGLKRGKDYTITVYAVTGRGDSPASSKPISINYFPET | binds | 
11 | clone 89 (bispecific Fn3-based binding molecule; VEGFR2/Bottom side SEQ ID NO: 8 merged molecule) (designed binder, the entry ends in ENLYFQG-HHHHHH; also called VEGFR2-HAS; single bispecific fibronectin molecule) MGVSDVPRDLEVVAATPTSLLISWRHPHFPTRYYRITYGRTDAKSTRKEFTVPLQPPLATIGELKRGRDYTITVYAVTKERNGRELFTPISINYRPEKENLYFQGHHHHHH |  | binding result [2]: binds
12 | SEQ ID NO 9 (designed binder) VSDVPRDLEVVAATPTSLLISWDAPAVTVRYYRITYGQLDKKHHDAEFTVPGSKSTATITRLKRGRDYTITVYAVTGRGDSPASSKPISINYSPER | binds | 
13 | SEQ ID NO 86 (designed binder) VSDVPRDLEVVAATPTSLLISWDAPAVTVRYYRITYGELPSQGRQEFTVPGSKSTATISYRRELVDYTITVYAVTGRGESPASSKPISINYGSSY |  | binding result [3]: binds
14 | SEQ ID NO 13 (designed binder) VSDVPRDLEVVAATPTSLLISWDAPAVTVRYYRITYGTSVDDRKLREFTVPGSKSTATISRLKRGRDYTITVYAVTGRGDSPASSKPISINYRAEN | binds | 
15 | SEQ ID NO 41 (designed binder) VSNIPKDLEVVAATPTSLLISWDAPAVTVRYYRITYGQTMNGQSNVEFTVPGSKSTATISPSKLGLDYTITVYAVTGRGDSPASSKPISINYLSET | binds | 
16 | SEQ ID NO 30 (designed binder) VSDVPRDLEVVAATPTSLLISWDAPAVTVRYYRITYGIPAKKHHTHEFTVPGSKSTATITGLKSGVDYTITVYAVTGRGDSPASSKPISINYRTET | binds | 
17 | SEQ ID NO 22 (designed binder) VSDVPRDLEVVAATPTSLLISWDAPAVTVRYYRITYGKSHGHRQKHEFTVPGSKSTATISDYRQGGDYTITVYAVTGRGDSPASSKPISINYKGEL | binds | 
18 | SEQ ID NO 37 (designed binder) VSDVPRDLEVVAATPTSLLISWDAPAVTVRYYRITYGKLSQPTKRREFTVPGSKSTATISRLKPGLDYTITVYAVTGRGDSPASSKPISINYHYEL | binds | 
19 | SEQ ID NO 18 (designed binder) VSDVPRDLEVVAATPTSLLISWDAPAVTVRYYRITYGHTAKTRHHHEFTVPGSKSTATICKSRRGSDYTITVYAVTGRGDSPASSKPISINYQAET | binds | 
20 | SEQ ID NO 16 (designed binder) VSDVPRDLEVVAATPTSLLISWDAPAVTVRYYRITYGITGKEKSFVEFTVPGSKSTATIRDVKKGKDYTITVYAVTGRGDSPASSKPISINYRAET | binds | 
21 | SEQ ID NO 19 (designed binder) VSDVPRDLEVVAATPTSLLISWDAPAVTVRYYRITYGYGAANRRAHEFTVPGSKSTATISGLKRGRDYTITVYAVTGRGDSPASSKPISINYRHEL | binds | 
22 | SEQ ID NO 36 (designed binder) VSDVPRDLEVVAATPTSLLISWDAPAVTVRYYRITYGNIVAANALPEFTVPGSKSTATITGLMSGIDYTITVYAVTGRGDSPASSKPISINYSTEY | binds | 
23 | SEQ ID NO 25 (designed binder) VSDVPRDLEVVAATPTSLLISWDAPAVTVRYYRITYGEKPRKYRSSEFTVPGSKSTATIRHSKHGKDYTITVYAVTGRGDSPASSKPISINYMREI | binds | 

More lines, main results first:

Row | binding result [1] | Binder | other results
24 | binds | SEQ ID NO 14 (designed binder) VSDVPRDLEVVAATPTSLLISWDAPAVTVRYYRITYGVLSSTKHLKEFTVPGSKSTATISGLKLGRDYTITVYAVTGRGDSPASSKPISINYRMES | 
25 | binds | SEQ ID NO 32 (designed binder) VSDVPRDLEVVAATPTSLLISWDAPAVTVRYYRITYGMISGDKRRREFTVPGSKSTATIDRLKLGRDYTITVYAVTGRGDSPASSKPISINYRLES | 
26 | binds | SEQ ID NO 38 (designed binder) VSDVPRDLEVVAATPTSLLISWDAPAVTVRYYRITYGKSSHNSAAKEFTVPGSKSTATITRLKSGTDYTITVYAVTGRGDSPASSKPISINYKPEY | 
27 | binds | SEQ ID NO 7 (designed binder) VSDVPRDLEVVAATPTSLLISWDAPAVTVRYYRITYGKTEGHRHSHEFTVPGSKSTATISGLKHGDDYTITVYAVTGRGDSPASSKPISINYRMEK | 
28 | binds | SEQ ID NO 35 (designed binder) VSDVPRDLEVVAATPTSLLISWDAPAVTVRYYRITYGKNGRHNLDHEFTVPGSKSTATISGLKRGVDYTITVYAVTGRGDSPASSKPISINYHNEN | 
29 | binds | SEQ ID NO 15 (designed binder) VSDVPRDLEVVAATPTSLLISWDAPAVTVRYYRITYGSRASHRKLTEFTVPGSKSTATISGLKTGRDYTITVYAVTGRGDSPASSKPISINYRTEH | 
30 | binds | SEQ ID NO 21 (designed binder) VSDVPRDLEVVAATPTSLLISWDAPAVTVRYYRITYGDSRHHPRAHEFTVPGSKSTATITGCKRGHDYTITVYAVTGRGDSPASSKPISINYRYEH | 
31 | binds | SEQ ID NO 27 (designed binder) VSDVPRDLEVVAATPTSLLISWDAPAVTVRYYRITYGLTKRKSLISEFTVPGSKSTATIIGLKAGKDYTITVYAVTGRGDSPASSKPISINYKTEN | 
32 | binds | SEQ ID NO 29 (designed binder) VSDVPRDLEVVAATPTSLLISWDAPAVTVRYYRITYGDRAKNTRIKEFTVPGSKSTATISGLKRGRDYTITVYAVTGRGDSPASSKPISINYRLEG | 
33 | binds | SEQ ID NO 28 (designed binder) VSDVPRDLEVVAATPTSLLISWDAPAVTVRYYRITYGKVKAKAPLVEFTVPGSKSTATISSLKTGKDYTITVYAVTGRGDSPASSKPISINYRYEG | 
34 | binds | SEQ ID NO 34 (designed binder) VSDVPRDLEVVAATPTSLLITWDAPAVTVRYYRITYGVAGKTKPRSEFTVPGSKSTATIPHLKLGHDYTITVYAVTGRGDSPASSKPISINYRAEH | 
35 | binds | SEQ ID NO 12 (designed binder) VSDVPRDLEVVAATPTSLLISWDAPAVTVRYYRITYGRTKGKSKLKEFTVPGSKSTATIPGLKQGEDYTITVYAVTGRGDSPASSKPISINYMFER | 
